Results published in paper doi:10.1101/2024.11.08.622755.

Assays:
[1] = target: Nonlabens marinus rhodopsin 1 (NM-R1), proteorhodopsin clade (Nonlabens marinus S1-08T); test: cryo-EM structure
[2] = target: Nonlabens marinus rhodopsin 3 (NM-R3), chloride ion-pumping rhodopsin clade (Nonlabens marinus S1-08T); test: cryo-EM structure

stoichiometry N [1]	stoichiometry N [2]	Substance
5		Nonlabens marinus rhodopsin 1 (NM-R1), proteorhodopsin clade (natural protein)
	5	Nonlabens marinus rhodopsin 3 (NM-R3), chloride ion-pumping rhodopsin clade (natural protein)
